# Reference: patent US20130072665A1
# B1: 21B12, anti-PCSK9 huIgG4 (antibody, V domains shown)
# VH: QVQLVQSGAEVKKPGASVKVSCKASGYTLTSYGISWVRQAPGQGLEWMGWVSFYNGNTNYAQKLQGRGTMTTDPSTSTAYMELRSLRSDDTAVYYCARGYGMDVWGQGTTVTVSS
# VL: QSALTQPASVSGSPGQSITISCTGTSSDVGGYNSVSWYQQHPGKAPKLMIYEVSNRPSGVSNRFSGSKSGNTASLTISGLQAEDEADYYCNSYTSTSMVFGGGTKLTVLQ
# B2: 16F12, anti-PCSK9 huIgG4 (antibody, V domains shown)
# VH: QVHLVESGGGVVQPGRSLRLSCAASGFTFNSFGMHWVRQAPGKGLEWVALIWSDGSDEYYADSVKGRFTISRDNSKNTLYLQMNSLRAEDTAVYYCARAIAALYYYYGMDVWGQGTTVTVSS
# VL: QSVLTQPPSVSAAPGQKVTISCSGSSSNIGNNFVSWYQQLPGTAPKLLIYDYNKRPSGIPDRFSGSKSGTSATLGITGLQTGDEADYYCGTWDSSLSAYVFGTGTRVTVLQ
# B3: 23B5 (antibody, V domains shown)
# VH: EVQLLESGGGLVQPGGSLRLSCAASGFTFSSYAMNWVRQAPGKGLEWVSTISGSGDNTYYADSVKGRFTISRDNSKNTLYLQMNSLRAEDTAVYYCAKKFVLMVYAMLDYWGQGTLVTVSS
# VL: DILMTQSPSSLSASVGDRVTITCRASQSISSYLNWYQQKPGKAPKVLIYAASSLQSGVPSRFSGSGSGTDFTLTINSLQPEDFATYYCQQSYSSPITFGQGTRLEIK
# Legend:
# [1] = target: cynomolgus monkey PCSK9 (cynomolgus monkey); assay: BIAcore solution equilibrium, % free cPCSK9 against [21B12]; third of four curves; cPCSK9 concentration not given
# [2] = target: cynomolgus monkey PCSK9 (cynomolgus monkey); assay: BIAcore solution equilibrium
# [3] = target: cynomolgus monkey PCSK9 (cynomolgus monkey); assay: BIAcore solution equilibrium, % free cPCSK9 against [21B12]; second of four curves; cPCSK9 concentration not given
# [4] = target: cynomolgus monkey PCSK9 (cynomolgus monkey); assay: BIAcore solution equilibrium, % free cPCSK9 against [21B12]; rightmost of four curves; cPCSK9 concentration not given
# [5] = target: cynomolgus monkey PCSK9 (cynomolgus monkey); assay: BIAcore, antibody immobilised, pH 7.4
# [6] = target: cynomolgus monkey PCSK9 (cynomolgus monkey); assay: BIAcore solution equilibrium, % free cPCSK9 against [21B12]; leftmost of four curves; cPCSK9 concentration not given
# [7] = target: cynomolgus monkey PCSK9 (cynomolgus monkey); assay: KinExA solution equilibrium
# [8] = target: cynomolgus monkey PCSK9 (cynomolgus monkey); assay: BIAcore solution equilibrium, column To Cyno PCSK9
Binder,IC50 (read off the curve) [1],Kd [2],IC50 (read off the curve) [3],IC50 (read off the curve) [4],Kd [5],IC50 (read off the curve) [6],Kd [7],Kd [8]
B1,0.09 nM,0.011 nM,0.03 nM,0.2 nM,0.36 nM,0.02 nM,,
B2,,,,,0.87 nM,,0.016 nM,
B3,,,,,,,,0.12 nM
